The values that follow come from patent publication US20030186419.

The data set concerns the target rMBL-rMASP-2 complexes, P11226.

Chain of rMBL-rMASP-2 complexes, P11226 (P11226 21-248, chain 1 of 2): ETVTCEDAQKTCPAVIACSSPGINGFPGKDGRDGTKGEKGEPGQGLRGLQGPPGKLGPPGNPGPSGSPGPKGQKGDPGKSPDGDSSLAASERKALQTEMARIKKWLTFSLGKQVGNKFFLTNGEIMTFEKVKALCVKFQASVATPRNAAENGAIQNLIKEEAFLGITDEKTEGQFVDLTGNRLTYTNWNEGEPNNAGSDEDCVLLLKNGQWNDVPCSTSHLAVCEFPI
Chain of rMBL-rMASP-2 complexes, P11226 (chain, as listed by the source, chain 2 of 2): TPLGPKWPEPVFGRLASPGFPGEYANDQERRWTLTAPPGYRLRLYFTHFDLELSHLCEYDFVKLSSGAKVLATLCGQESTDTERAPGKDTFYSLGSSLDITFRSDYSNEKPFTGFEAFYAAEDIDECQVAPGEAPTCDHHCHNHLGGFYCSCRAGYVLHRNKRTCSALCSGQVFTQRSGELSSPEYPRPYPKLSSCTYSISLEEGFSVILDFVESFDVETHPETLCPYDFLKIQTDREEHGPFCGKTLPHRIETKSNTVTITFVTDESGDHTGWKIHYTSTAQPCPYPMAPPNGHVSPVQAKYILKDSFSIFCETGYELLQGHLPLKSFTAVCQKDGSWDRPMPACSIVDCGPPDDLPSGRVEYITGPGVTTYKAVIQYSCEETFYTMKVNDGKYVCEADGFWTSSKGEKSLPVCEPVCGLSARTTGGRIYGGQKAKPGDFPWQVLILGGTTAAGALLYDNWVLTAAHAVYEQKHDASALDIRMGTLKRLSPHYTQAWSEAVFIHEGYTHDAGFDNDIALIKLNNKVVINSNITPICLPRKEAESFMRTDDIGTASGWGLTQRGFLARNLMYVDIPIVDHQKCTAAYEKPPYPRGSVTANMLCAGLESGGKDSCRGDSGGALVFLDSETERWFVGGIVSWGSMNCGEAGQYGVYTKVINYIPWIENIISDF

B1: rMASP-3 (recombinant MASP-3 from HEK 293EBNA cells transfected with the pMASP-3; 4.1 construct) (peptide)
chain: GSGALLSASWILTAAHVLRSQRRDTTVIPVSKEHVTVYL
In the case of B1, the “activation of C4 by rMBL-rMASP-2 complexes (bound C4 on mannan-coated wells, Eu-labelled anti-C4 antibody)” value is “The activity of rMBL-rMASP-2 complexes was also inhibited by rMASP-3”.
